Results on four molecules are retold here after article doi:10.1101/2020.10.05.326918 (bioRxiv, 2020).

Common to all, as to assay: cryo-EM structure
One experiment deals with T1, MED20 (Mus musculus (endogenous in CH12 cells), UniProt Q9R0X0 1-212).
T1 sequence (looked up): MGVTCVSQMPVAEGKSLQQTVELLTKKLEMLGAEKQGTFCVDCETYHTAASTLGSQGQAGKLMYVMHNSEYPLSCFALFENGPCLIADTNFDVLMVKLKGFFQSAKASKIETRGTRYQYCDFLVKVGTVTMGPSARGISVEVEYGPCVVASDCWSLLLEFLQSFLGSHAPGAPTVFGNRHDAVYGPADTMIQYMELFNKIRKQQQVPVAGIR

The next experiment addresses T2, MED27 (Mus musculus (endogenous in CH12 cells), UniProt Q9DB40 1-311).
T2 sequence (looked up): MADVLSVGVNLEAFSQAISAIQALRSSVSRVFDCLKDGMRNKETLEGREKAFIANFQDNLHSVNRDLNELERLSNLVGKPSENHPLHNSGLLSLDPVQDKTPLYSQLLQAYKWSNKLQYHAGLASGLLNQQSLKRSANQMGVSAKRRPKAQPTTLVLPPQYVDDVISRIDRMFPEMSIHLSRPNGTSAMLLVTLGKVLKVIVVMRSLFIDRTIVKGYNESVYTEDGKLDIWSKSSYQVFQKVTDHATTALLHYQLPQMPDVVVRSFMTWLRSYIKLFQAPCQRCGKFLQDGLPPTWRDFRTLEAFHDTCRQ

A further experiment concerns the target T3, MED17 (Mus musculus (endogenous in CH12 cells), UniProt Q8VCD5 1-649).
T3 sequence (looked up): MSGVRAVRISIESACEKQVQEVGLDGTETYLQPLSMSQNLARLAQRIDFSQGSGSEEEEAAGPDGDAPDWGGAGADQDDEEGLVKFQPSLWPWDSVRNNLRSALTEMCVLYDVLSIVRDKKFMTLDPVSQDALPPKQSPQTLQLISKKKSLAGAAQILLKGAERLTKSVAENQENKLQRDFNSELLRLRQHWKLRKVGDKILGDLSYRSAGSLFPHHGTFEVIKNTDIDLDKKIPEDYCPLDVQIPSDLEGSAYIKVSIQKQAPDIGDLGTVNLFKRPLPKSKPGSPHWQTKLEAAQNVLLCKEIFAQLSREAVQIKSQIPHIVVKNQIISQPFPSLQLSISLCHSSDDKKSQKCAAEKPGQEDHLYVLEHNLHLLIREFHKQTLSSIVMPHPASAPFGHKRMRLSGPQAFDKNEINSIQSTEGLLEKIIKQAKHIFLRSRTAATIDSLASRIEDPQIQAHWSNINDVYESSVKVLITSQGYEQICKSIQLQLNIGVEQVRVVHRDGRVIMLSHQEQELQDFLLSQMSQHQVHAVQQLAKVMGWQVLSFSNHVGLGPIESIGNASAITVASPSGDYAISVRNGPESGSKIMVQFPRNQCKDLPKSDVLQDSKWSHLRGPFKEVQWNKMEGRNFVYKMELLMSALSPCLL

The next experiment addresses T4, MED7 (Mus musculus (endogenous in CH12 cells), UniProt Q9CZB6 1-233).
T4 sequence (looked up): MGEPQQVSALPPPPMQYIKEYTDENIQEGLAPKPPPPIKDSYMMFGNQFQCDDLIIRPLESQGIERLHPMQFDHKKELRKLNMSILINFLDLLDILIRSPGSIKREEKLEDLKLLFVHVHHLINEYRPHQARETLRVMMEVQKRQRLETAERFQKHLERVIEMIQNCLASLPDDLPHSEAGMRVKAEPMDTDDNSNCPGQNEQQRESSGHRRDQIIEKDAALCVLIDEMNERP

A further experiment concerns the target T5, MED22 (Mus musculus (endogenous in CH12 cells), UniProt Q62276 1-200).
T5 sequence (looked up): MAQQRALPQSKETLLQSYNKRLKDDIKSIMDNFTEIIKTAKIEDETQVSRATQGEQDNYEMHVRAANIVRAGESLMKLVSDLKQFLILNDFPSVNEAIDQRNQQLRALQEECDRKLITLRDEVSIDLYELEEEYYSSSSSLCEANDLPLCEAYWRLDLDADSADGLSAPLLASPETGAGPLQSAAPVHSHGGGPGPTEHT

In the next experiment the target is T6, MED28 (Mus musculus (endogenous in CH12 cells), UniProt Q920D3 1-178).
T6 sequence (looked up): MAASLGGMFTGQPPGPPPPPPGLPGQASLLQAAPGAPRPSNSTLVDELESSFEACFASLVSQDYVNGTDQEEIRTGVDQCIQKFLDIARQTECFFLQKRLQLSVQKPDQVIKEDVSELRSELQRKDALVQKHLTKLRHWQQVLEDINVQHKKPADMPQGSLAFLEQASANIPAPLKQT

The target of a further experiment is T7, MED30 (Mus musculus (endogenous in CH12 cells), UniProt Q9CQI9 1-178).
T7 sequence (looked up): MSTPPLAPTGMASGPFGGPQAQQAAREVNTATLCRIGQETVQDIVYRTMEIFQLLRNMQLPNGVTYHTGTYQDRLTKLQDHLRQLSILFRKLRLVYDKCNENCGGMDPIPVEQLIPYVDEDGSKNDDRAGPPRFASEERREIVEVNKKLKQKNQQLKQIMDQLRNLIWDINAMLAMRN

The next experiment deals with MED1 (Mus musculus (endogenous in CH12 cells), UniProt Q925J9 1-1575).
In the next experiment the target is T8, MED4 (Mus musculus (endogenous in CH12 cells), UniProt Q9CQA5 1-270).
T8 sequence (looked up): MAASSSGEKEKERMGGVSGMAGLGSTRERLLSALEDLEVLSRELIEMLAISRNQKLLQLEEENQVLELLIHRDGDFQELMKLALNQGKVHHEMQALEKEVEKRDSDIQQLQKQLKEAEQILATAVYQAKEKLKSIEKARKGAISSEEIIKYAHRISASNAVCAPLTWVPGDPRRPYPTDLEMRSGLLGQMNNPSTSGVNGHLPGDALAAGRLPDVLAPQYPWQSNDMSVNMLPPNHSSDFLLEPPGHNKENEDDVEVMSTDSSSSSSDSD

Sequence of MED1 (Q925J9 whole entry): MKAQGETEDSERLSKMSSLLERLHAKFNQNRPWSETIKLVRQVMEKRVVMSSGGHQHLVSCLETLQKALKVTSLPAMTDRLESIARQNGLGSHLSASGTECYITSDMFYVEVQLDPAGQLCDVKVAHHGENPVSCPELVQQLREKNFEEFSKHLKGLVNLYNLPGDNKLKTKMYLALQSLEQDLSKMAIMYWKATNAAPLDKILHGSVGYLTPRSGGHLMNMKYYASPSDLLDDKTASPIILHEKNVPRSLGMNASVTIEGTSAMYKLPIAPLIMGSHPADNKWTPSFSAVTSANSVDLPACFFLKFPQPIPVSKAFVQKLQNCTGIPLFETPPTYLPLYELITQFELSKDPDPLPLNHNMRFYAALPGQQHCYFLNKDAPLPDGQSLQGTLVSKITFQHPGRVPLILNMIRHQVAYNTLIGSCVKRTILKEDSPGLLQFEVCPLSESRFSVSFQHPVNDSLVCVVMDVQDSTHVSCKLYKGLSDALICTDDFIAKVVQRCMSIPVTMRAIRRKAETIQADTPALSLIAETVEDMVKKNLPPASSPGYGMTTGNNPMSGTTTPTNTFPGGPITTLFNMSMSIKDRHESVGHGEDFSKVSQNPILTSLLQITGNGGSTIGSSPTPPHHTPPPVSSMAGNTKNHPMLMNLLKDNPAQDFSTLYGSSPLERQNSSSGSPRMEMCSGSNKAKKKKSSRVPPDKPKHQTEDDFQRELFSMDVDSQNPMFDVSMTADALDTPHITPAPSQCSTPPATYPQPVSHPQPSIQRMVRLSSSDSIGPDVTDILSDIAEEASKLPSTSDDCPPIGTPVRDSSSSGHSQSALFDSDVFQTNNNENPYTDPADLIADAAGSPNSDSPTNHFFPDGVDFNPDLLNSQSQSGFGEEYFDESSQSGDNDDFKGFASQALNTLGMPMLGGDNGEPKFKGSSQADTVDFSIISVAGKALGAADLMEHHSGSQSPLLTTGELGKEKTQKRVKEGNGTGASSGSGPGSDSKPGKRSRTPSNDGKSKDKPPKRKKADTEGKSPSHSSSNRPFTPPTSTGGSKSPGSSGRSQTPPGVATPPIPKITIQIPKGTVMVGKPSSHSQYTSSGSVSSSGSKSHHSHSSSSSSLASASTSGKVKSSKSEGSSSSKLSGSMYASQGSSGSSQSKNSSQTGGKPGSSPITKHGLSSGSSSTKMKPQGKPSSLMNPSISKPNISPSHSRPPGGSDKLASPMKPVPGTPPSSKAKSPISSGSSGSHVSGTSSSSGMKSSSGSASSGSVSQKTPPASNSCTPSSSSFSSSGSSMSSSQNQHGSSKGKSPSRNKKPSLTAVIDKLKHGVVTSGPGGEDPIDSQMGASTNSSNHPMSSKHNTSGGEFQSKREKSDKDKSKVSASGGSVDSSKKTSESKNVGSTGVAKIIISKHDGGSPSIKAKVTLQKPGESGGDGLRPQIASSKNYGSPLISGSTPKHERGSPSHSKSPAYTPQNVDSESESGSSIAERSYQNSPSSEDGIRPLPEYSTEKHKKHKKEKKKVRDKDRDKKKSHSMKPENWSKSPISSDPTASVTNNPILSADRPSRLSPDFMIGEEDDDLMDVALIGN

B1: MED18 (natural protein, Mus musculus (endogenous in CH12 cells), UniProt Q9CZ82 1-208, looked up)
chain: MEAPPVTMMPVTGGTINMMEYLLQGSVLDHSLESLIHRLRGLCDNMEPETFLDHEMVFLLKGQQASPFVLRARRSMDRAGAPWHLRYLGQPEMGDKNRHALVRNCVDIATSENLTDFLMEMGFRMDHEFVAKGHLFRKGIMKVVVYKIFRILVPGNTDSTEALSLSYLVELSVVAPAGQDMVSDDMRNFAEQLKPLVHLEKIDPKRLM
B1: the binding result with MED20, in the experiment with MED27 and with MED17 was “binds” throughout.

B2: MED21 (natural protein, Mus musculus (endogenous in CH12 cells), UniProt Q9CQ39 1-144, looked up)
chain: MADRLTQLQDAVNSLADQFCNAIGVLQQCGPPASFSNIQTAINKDQPANPTEEYAQLFAALIARTAKDIDVLIDSLPSEESTAALQAASLYKLEEENHEAATCLEDVVYRGDMLLEKIQSALADIAQSQLKTRSVTHSHSLPDS
For B2, the binding result in the experiment with MED7 is “binds”.

B3: MED11 (natural protein, Mus musculus (endogenous in CH12 cells), UniProt Q9D8C6 1-117, looked up)
chain: MATYSLANERLRALEDIEREIGAILQNAGTAILELSKEKTNERLLDRQAAAFTTSVQHVEAELSAQIRYLTQVATGQPHEGSSYSSRKDCQMALKRVDYARLKISDVARTCEQMLEN
In the case of B3, the binding result in the experiment with MED22, with MED28 and with MED30 was “binds” in each case.

B4: MED9 (natural protein, Mus musculus (endogenous in CH12 cells), UniProt Q8VCS6 1-142, looked up)
chain: MASSGVAGGRQAEDTLQPPPELLPESKPPPPPQPLPVAALPPPAAPRPQSPAGAKEENYSFLPLVHNVIKCMDKDSPDLHQDLNALKTKFQELRKLIGTMPGIHVSPEQQQQQLHSLREQVRTKNELLQKYKSLCMFEIPKD
Turning to B4, the binding result with MED1 and with MED4 was “binds” throughout.
